Data published in US20250276080A1 (Amgen, published 2025).
Where no end group is shown, it is not given here. [ ]: non-standard residue; d: D form. Aib = CC(C)(N)C(=O)O

B1: Conjugate 25435: Fc SEFL2 T487C-15997 (other)
chain 1: DKTHTCPPCPAPELLGGPSVFLFPPKPKDTLMISRTPEVTCVVVDVSHEDPEVKFNWYVDGVEVHNAKTKPCEEQYGSTYRCVSVLTVLHQDWLNGKEYKCKVSNKALPAPIEKTISKAKGQPREPQVYTLPPSREEMCKNQVSLTCLVKGFYPSDIAVEWESNGQPENNYKTTPPVLDSDGSFFLYSKLTVDKSRWQQGNVFSCSVMHEALHNHYTQKSLSLSPGK
peptide: H[dS]QGTFTSDYSKYLD[Aib]RRAQDFVQWLLKT
chain 2: Ac-GSPAPAPAPAPAPAPAPAPAPASGG
modifications: not fully specified; also: thioether at chain A 139 to a chain's N-terminus via acetyl, bond at chain B 28 to a chain's C-terminus
B2: Conjugate 40741: aGIPR 5G12 SEFL2 E384C-39903 (other)
heavy: QVQLVESGGGVVQPGRSLRLSCTASGFTFSSYGIHWVRQAPGKGLEWVAVIWYDGSNKFHADSVKGRFTISRDNSKNTLYLQMNSLRAEDSAMYFCARGKVAGMPEAFEIWGQGTKVTVSSASTKGPSVFPLAPSSKSTSGGTAALGCLVKDYFPEPVTVSWNSGALTSGVHTFPAVLQSSGLYSLSSVVTVPSSSLGTQTYICNVNHKPSNTKVDKKVEPKSCDKTHTCPPCPAPELLGGPSVFLFPPKPKDTLMISRTPEVTCVVVDVSHEDPCVKFNWYVDGVEVHNAKTKPCEEQYGSTYRCVSVLTVLHQDWLNGKEYKCKVSNKALPAPIEKTISKAKGQPREPQVYTLPPSREEMTKNQVSLTCLVKGFYPSDIAVEWESNGQPENNYKTTPPVLDSDGSFFLYSKLTVDKSRWQQGNVFSCSVMHEALHNHYTQKSLSLSPGK
light: DIQLTQSPSSLSASVGDRVTITCRASQTISRFLNWYQQKPGKAPELLIYVASSLQSGVPSRFSGSGSGTDFTLTISSLQPEDFATYYCQQSYSTLISFGQGTKLEITRTVAAPSVFIFPPSDEQLKSGTASVVCLLNNFYPREAKVQWKVDNALQSGNSQESVTEQDSKDSTYSLSSTLTLSKADYEKHKVYACEVTHQGLSSPVTKSFNRGEC
peptide: HSQGTFTSDYSKYLDQRRAQDFVQWLLKT
chain: GSPAPAPAPAPAPAPAPAPAPASGG
modifications: N-term acetyl-thioether to Cys; d-Ser2; K28 eps-NH linked to linker C-term; C276 conjugated to linker
B3: Conjugate 91659: aGIPR 5G12 SEFL2 E384C-91255 (other)
heavy: B2 heavy
light: B2 light
peptide: HSQGTFTSDYSKYLDEKRAQEFVEWLLKS
chain: GGGGSGGGGSPAPAPAPAPAPASGG
modifications: N-terminus conjugated to heavy-chain Cys; d-Ser2; K28 side chain amide-linked to linker C-terminus; C276 conjugated to linker
B4: Conjugate 88013: aGIPR 5G12 SEFL2 E384C-87021 (other)
heavy: B2 heavy
light: B2 light
peptide: HSQGTFTSDYSKYLDAKRAQEFVEWLLKS
chain: GGGGSGGGGSPAPAPAPAPAPASGG
modifications: N-terminus conjugated to heavy-chain Cys; K28 side chain amide-linked to linker C-terminus; C276 conjugated to linker
B5: Conjugate 92868: aGIPR 5G12 SEFL2 E384C-92840 (other)
heavy: B2 heavy
light: B2 light
peptide: HSQGTFTSDYSKYLDEKRAREFVEWLLKS
chain: GGGGSGGGGSPAPAPAPAPAPASGG
modifications: N-terminus conjugated to heavy-chain Cys; d-Ser2; K28 side chain amide-linked to linker C-terminus; C276 conjugated to linker

Columns and labels:
Assay in all cases: cell-based or functional assay
[1] = target: human glucagon-like peptide-1 receptor (human, UniProt P43220 24-463)
human glucagon receptor [2] = target: human glucagon receptor (human, UniProt P47871 26-477)
Target sequence in this assay (P47871 26-477): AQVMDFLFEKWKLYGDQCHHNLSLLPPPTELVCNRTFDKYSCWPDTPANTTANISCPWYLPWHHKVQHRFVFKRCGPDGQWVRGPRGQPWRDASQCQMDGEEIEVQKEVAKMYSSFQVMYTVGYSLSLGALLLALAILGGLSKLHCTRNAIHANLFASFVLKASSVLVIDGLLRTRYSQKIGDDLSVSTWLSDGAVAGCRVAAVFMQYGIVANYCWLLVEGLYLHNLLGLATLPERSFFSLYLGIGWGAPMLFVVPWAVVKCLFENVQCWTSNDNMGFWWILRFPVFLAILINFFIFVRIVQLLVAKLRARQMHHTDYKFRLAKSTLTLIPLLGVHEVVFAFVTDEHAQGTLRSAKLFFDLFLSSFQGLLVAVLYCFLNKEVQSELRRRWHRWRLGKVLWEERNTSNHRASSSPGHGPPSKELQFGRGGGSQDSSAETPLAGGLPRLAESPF

human GLP-1 receptor = human GLP-1 receptor (human, UniProt P43220 24-463)
human glucagon receptor [3] = target: human glucagon receptor (human, UniProt P47871 26-477); remark: listed apart in the source
Target sequence in this assay (P47871 26-477): as above

| hGLP-1R EC50 (pM) [1] | hGCGR EC50 (pM) (human glucagon receptor [2]) | hGLP-1R EC50 (pM) (human GLP-1 receptor) | hGCGR EC50 (pM) (human glucagon receptor [3]) | Binder |
| --- | --- | --- | --- | --- |
| 9770 pM | 9.1 pM | – | – | B1 |
| 8020 pM | 40.9 pM | – | – | B2 |
| – | – | 6750 pM | 152 pM | B3 |
| – | – | – | 41.3 pM | B4 |
| – | – | 289 pM | 127 pM | B5 |
